# In the nanobody polyreactivity screen of Harvey et al. (2022):
# Assay: yeast display, Sf9 membrane polyspecificity reagent, FACS + sequencing; frameworks hold sequencing errors
# Method in brief: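 Sorting gates, low and high (top ~1%), were placed on anti-HA fluorescence to track expression and on streptavidin fluorescence to track reagent binding. A clone's polyreactivity label is taken from the gate it came out of. The reagent was 10% biotinylated, detergent-solubilized Sf9 membrane, applied for 1 hour at 4 °C to galactose-induced yeast display cells.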
row,Sequence,polyreactivity (PSR sort gate)
1,QVQLVESGGGLVQAGGSLRLSCAASGSIFERNAMGWYRQAPGKERELVAGISSSGRTNYADSVKGRFTISRDNAKNTVYLQMNSLKPEDTAVYYCSADTYLYWEYDYWGQGTQVTVSS,low polyreactivity
2,QVQLVESGGGLVQAGGSLRLSCAASGSIFERYAMGWYRQSPGKEREFVATITSGGGRTYYADSVKGRFTISRENAKNTVYLQMNSLKPEDTAVYYCGAASYRRQPFNYWGQGTQVTVSS,high polyreactivity
3,QVQLVESGGGLVQAGGSLRLSCAASGSIFERYSMGWYRQATGKERELFATISKSGDSKYYADSVKGRFTISRDNAKNTVYFQMNRLKPEDTAVYYCSADGWYETSDATFYYWGQGTQVNVSS,low polyreactivity
4,QVQLVESGGGLVQAGGSLRLSCAASGSIFESNAMGWYRQAPGKERELVAAYADSVKGRFTISRDNAKNTVYLQMNSLKPEDTAVYYCAKSLSLYVVPLYEYWGQGTQVTVSS,low polyreactivity
5,QVQLVESGGGLVQAGGSLRLSCAASGSIFESYVMGWYRQAPGKERELVAAISYTGDDTYYADSVKGRFTISRDNAKNTVYLQMNSLKPEDTAVYYCNADNYYYYPWYVRALDSWGQGTQVTVSS,low polyreactivity
6,QVQLVESGGGLVQAGGSLRLSCAASGSIFEVYAMGWYRQAPGKEREFVATISGSGGSTYYADSVKGRFTISRDNAKNTVYLQMNSLKPEDTAVYYCAASIAWYSSFVITYYYWGQGTQVTVSS,low polyreactivity
7,QVQLVESGGGLVQAGGSLRLSCAASGSIFEWYAMGWYRQAPGKERELVATITGSGGSTYYADSVKGRFTISRDNAKNTVYLQMNSLKPEDTAVYYCAAVPPPGGLDYWGQGTQVTVSS,high polyreactivity
8,QVQLVESGGGLVQAGGSLRLSCAASGSIFEYYAMGWYRQAPGKERELVAAITWSGGSTYYADSVKGRFTISRDNAKNTVYLQMNSLKPEDTAVYYCAKGYYVYGIFHRFGYYWGQGTQVTVSS,high polyreactivity
9,QVQLVESGGGLVQAGGSLRLSCAASGSIFFDGNAMGWYRQAPGKERELVAAISVSGGSTYYADSVKGRFTISRDNAKNTVYLQMNSLKAEDTAVYYCAKYPSKSYVPGDYWGQGTQVTVSS,low polyreactivity
10,QVQLVESGGGLVQAGGSLRLSCAASGSIFFENDMGWYRQAPGKEREFVAAISLSSASTYYADSVKGRFTISRDNAKNTVYLQMNSLKPEDTAVYYCAADAIFGWPTFDYWGQGTQVTVSS,low polyreactivity
11,QVQLVESGGGLVQAGGSLRLSCAASGSIFFGNAMGWYRQAPGKERELVAAIDGTGASTYYADSVKGRFTISRDNAKNTVYLQMNSLKPEDTAVYYCNKALTSKDYPVRTVERDYWGQGTKVTVSS,low polyreactivity
12,QVQLVESGGGLVQAGGSLRLSCAASGSIFFGYAMGWYRQAPGKERELVAAISTRGGRSYYADSVKGRFTISRDNAKNTVYFQMNSLKPVDTAVYYCNAASLVQAYSHADERYDYWGQGTQVTVSS,high polyreactivity
13,QVQLVESGGGLVQAGGSLRLSCAASGSIFFGYAMGWYRQAPGKERELVAGISSNGGTTYYADSVKGRFTISRDHANNTVNLQMNSQKPEDTAVYDCATQYYARGYLYDYWGQGTQVTVSS,low polyreactivity
14,QVQLVESGGGLVQAGGSLRLSCAASGSIFFINAMGWYRQAPGKERELVASISQSGVSTYYADSVKGRFTISRDNAKNTVYLQMNSLKPEDTAVYYCATGPVRRARYVWSYTYYYWGQGTQVTVSS,low polyreactivity
15,QVQLVESGGGLVQAGGSLRLSCAASGSIFFIYAIGWYRQAPGKQRELVATISSGGSTYYADSVKGRFRISRDIAKNTVYLQMNSLKPEDTAVYYCAADGIVQDGLEWEYDYWGQGTQVTVSS,low polyreactivity
16,QVQLVESGGGLVQAGGSLRLSCAASGSIFFLYAMGWYRQAPGKERELVAAISLSTGNTYYADSVKGRFTISRDNAKNTVYLQMNSLKPEDSAVYYCAATYVSISYRYDYWGQGTQVTVSS,high polyreactivity
17,QVQLVESGGGLVQAGGSLRLSCAASGSIFFLYAMGWYRQAPGKERELVAAISVGGGSTYYADSVKGRFTFSRDNAKNTVYLHMNSLKPEDTAVYYCAALSKTRGGYWGQGTQVTVSS,high polyreactivity
18,QVQLVESGGGLVQAGGSLRLSCAASGSIFFNYAMGWYRKAPGKERELVATITSGGSTYYADSVKGRFTISRDNAKNTVYLQMNSLKPEDTAVYYCAVDEYFAFDYWGQGTQVTVSS,low polyreactivity
19,QVQLVESGGGLVQAGGSLRLSCAASGSIFFNYAMGWYRQAPGKERELVAAITRSGGSTYYADSVKGRFTISRDNAKNTVYLQMNSLKPEDTAVYYCAARYPFGSLGRYGYWGQGTQVTVSS,high polyreactivity
20,QVQLVESGGGLVQAGGSLRLSCAASGSIFFPNAMGWYRQAPGKERELVAAIRGGTNTYYADSVKGRFTISRDNAKTTVYLQLNSLKPEDTAVYYCAARRSSHWFTYDYWGQGTQVTVSS,high polyreactivity
21,QVQLVESGGGLVQAGGSLRLSCAASGSIFFPYAMGWYRQAPGKERELVAAISYSGTSRYYADSVKGRFTISRDNAKNTVYLQMNSLKPEDTAVYYCAAYSRYYASYDYWGQGTQVTVSS,high polyreactivity
22,QVQLVESGGGLVQAGGSLRLSCAASGSIFFSNAMGWYRQAPGKERELVAGIRSGGITNYADSVKGRFTISRDNAKNTVYLQMNSLKPEDSAVYYCAKLKDHGRYAYAFDYWGQGTQVTVSS,low polyreactivity

row,Sequence,polyreactivity (PSR sort gate)
1,QVQLVESGGGLVQAGGSLRLSCAASGSIFFVNDMGWYRQAPGKERELVAAITRDGGTNYADSVKGRFTISRDNAKNTVYLQMNSLKPEDTAVYYCAKESGSVLSLYDYWGQGTQVTVSS,low polyreactivity
2,QVQLVESGGGLVQAGGSLRLSCAASGSIFFVYDMGWYRQAPGKERELVAAITWSGGRTTYADSVKGRFTISRDNAKNTVYLQMNSLKPEDTAVYYCAKAWPDHWYSRYDYWGQGTQVTVSS,low polyreactivity
3,QVQLVESGGGLVQAGGSLRLSCAASGSIFFWYTMGWYRQAPGKERDLVATITGSGSSTTYADSVKGRFTISRDNAKNTVYLQMNSLKPEDTAVYSCAAADIIDHSFPYDYWGQGTQVTVSS,low polyreactivity
4,QVQLVESGGGLVQAGGSLRLSCAASGSIFFWYTRGWYRQEPGKERQLVATITGSGSSTTYADSVKGRFTISRDNAKNSVYLQMNSLKPEDTAVYYCAAADIIDHSFPYDYWGQGTQVTVSS,low polyreactivity
5,QVQLVESGGGLVQAGGSLRLSCAASGSIFFYNAMGWYRQAPGKERELVAAISRGGSTYYADSVKGRFTISRDNAKNTVYLQMNSLKPEDTAVYYCAVQRRRNSNVLFDYWGQGTQVTVSS,high polyreactivity
6,QVQLVESGGGLVQAGGSLRLSCAASGSIFFYNTMGWYRQARGKERELVATINSDDSTYYADSVKGGFTISRDNAKNTVYIQMNSLKPEDTAVYYCNVRVKGGKLVAYDYWGQGTQVTLSS,low polyreactivity
7,QVQLVESGGGLVQAGGSLRLSCAASGSIFFYYAMGWYRQAPGKERELVAAINSDGSTNYADSVKGRFTISRDNAKNTVYLQMNSLKPEDTAVYYCAAYDEYYGYDYWGQGTQVTVSS,low polyreactivity
8,QVQLVESGGGLVQAGGSLRLSCAASGSIFFYYAMGWYRQAPGKERELVAAISYSDGTTYYADSVKGRFTISRDNAKNTVYLQMNSLKPEDTAVYYCAADLWVGLVSLWDGYVEYDYWGQGTQVTVSS,low polyreactivity
9,QVQLVESGGGLVQAGGSLRLSCAASGSIFGANTMGWYRQAPWKERELVAGITSRARTYYADSVKGRFTISRDNAKNTVYLQMNSLKPEDTAVYYCAAKYAWRRYGYWGQGTQVTVSS,high polyreactivity
10,QVQLVESGGGLVQAGGSLRLSCAASGSIFGAYAMGWYRQAPGKERELVAAINYGGATTYYADSVKGRFTISRDNAKNTVYLQMNSLKPEDTAVYYCAADYLYAYGDVAVVYGWYAYYYWGQGTQVTVSS,low polyreactivity
11,QVQLVESGGGLVQAGGSLRLSCAASGSIFGAYTMRWYRQAPGKERELVAAITGGGITNYADSVKGRFTISRDNAKNTVYLQMNSLKPEDTAVYYCNAGYPPQTVVVGYDYWGQGTQVTVSS,low polyreactivity
12,QVQLVESGGGLVQAGGSLRLSCAASGSIFGDNAMGWYRQAPGKERELVAAINYNGGRTYYADSVKGRFTISRDNAKNTVYLQMNSLKPEDTAVYYCAKDNYQAPVQQYPFDYWGQGTQVTVSS,low polyreactivity
13,QVQLVESGGGLVQAGGSLRLSCAASGSIFGDNAMGWYRQAPGKERELVAAISIVGSTSYADSVKGRFTISRDNAKNTVYLQMNSLKPEDTAVYDCAAEIVRSDTGFDYWGQGTQVTVSS,low polyreactivity
14,QVQLVESGGGLVQAGGSLRLSCAASGSIFGDNAMGWYRQAPRKERELVAVISSSGSTYYADSVKGRFTISRDNAKNTVFLQMNSLKPEDSAVYYCNAYQFDWYEEYYYWGQGTQVTVSS,low polyreactivity
15,QVQLVESGGGLVQAGGSLRLSCAASGSIFGDYAMGWYRQAPGKEREFVAGITRRGGRTYYADSVKGRFTISRDNAKNTVYLQMNSLKPEDTAVYYCNAVYSSSLRSKYDYWGQGTQVTVSS,high polyreactivity
16,QVQLVESGGGLVQAGGSLRLSCAASGSIFGDYAMGWYRQAPGKERELVATITWIGGSTYYADSVKGRFTISRDNAKNTVYLQMNSLKPEDTAVYYCAATKYVDVKYYYWGQGTQVTVSS,low polyreactivity
17,QVQLVESGGGLVQAGGSLRLSCAASGSIFGDYAMGWYRQAPVKERELVATITWIGGSTYYADSVKGRFTISRDNAKNTVYLQMNSLTPEDTAVYYCAATKYVDVKYYYWGQGTQVTVSS,low polyreactivity
18,QVQLVESGGGLVQAGGSLRLSCAASGSIFGDYVMGWYRQAPGKERELVAAINRGGSTYYADSVKGRFTISRDNAKNTVYLQMNSLKPEDTALYYCAAGYPSWYYGYPYDSWGQGTQVTVSS,low polyreactivity
19,QVQLVESGGGLVQAGGSLRLSCAASGSIFGEIAMGWYRQAPGKERELVAAISSGVSTNYADSVKGRFTISRDNAKNTVYLQMNSLKPEDTAVYYCAVDSLPNSPYDYWGHGTQVTVSS,low polyreactivity
20,QVQLVESGGGLVQAGGSLRLSCAASGSIFGENAMGRYRQAPGKERELVAAITSGGSTDYADSVKGRFTISRDNAKNTVYLQMNSLKPEDTAVYYCAASGRVGPGYWYDSWGQGTQVTVSS,low polyreactivity
21,QVQLVESGGGLVQAGGSLRLSCAASGSIFGENAMGWYRQAPGKERELVASITESGVTTYYADSVKGRFTISRDNAKNTVYLQMNSLKPEDTAVYYFWGQGTQVTVSS,low polyreactivity
